# Assay results reported in the supplement of paper PMC9732359.
# ± gives the uncertainty stated by the source.
# Test: protein stability index of a GFP-peptide fusion (yeast GPS) (PSI 1-4); higher = more stable; sorted into four equal gates, so the index is relative within each strain
# In short: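 Peptides tiling yeast proteins in 17-residue segments were fused downstream of GFP, with Cherry expressed from the same plasmid. As a pooled library in yeast, mid-log cultures grown in leucine-free medium were sorted into four equal gates by GFP/Cherry fluorescence ratio. Gate plasmids were PCR-amplified and Illumina-sequenced, and barcodes linked reads to strains. Each peptide received a protein stability index equal to the sum of each gate's read frequency times its gate number.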
Sequence,protein stability index (doa10∆),protein stability index (pdr5∆),protein stability index (san1∆),protein stability index (ubr1∆)
TRPISSQVLDLAKKIAP [SMC2],2.72 ± 0.15,2.44 ± 0.097,2.59 ± 0.28,1.95 ± 0.14
MSDFVPIDAGLNEAPFP [MCD1],3 ± 0.07,2.56 ± 0.05,2.92 ± 0.051,2.97 ± 0.047
STEETTANTGTIGKRRT [TAF14],3.07 ± 0.13,3.27 ± 0.1,3.38 ± 0.088,2.77 ± 0.12
NSAIIQNLRKELLIYKK [YIL149C/MLP2],3.14 ± 0.084,2.6 ± 0.11,3.23 ± 0.078,3.14 ± 0.053
LPLWHLLNRIPRMYHIG [POP1],3.06 ± 0.17,2.97 ± 0.15,2.06 ± 0.21,2.63 ± 0.15
RAGVTIPSIPNPIANHT [SNF5],2.46 ± 0.05,2.61 ± 0.039,2.43 ± 0.041,2.64 ± 0.031
MQIFVKTLTGKTITLEV [RPS31],2.48 ± 0.17,1.76 ± 0.097,2.61 ± 0.13,3.13 ± 0.13
TWTNSKIFIKDPKFVNS [YML103C/NUP188],2.27 ± 0.11,2.05 ± 0.06,1.71 ± 0.11,1.73 ± 0.062
IVDDYWESLAKKQNLSS [SWP82],2.91 ± 0.073,2.93 ± 0.089,3.45 ± 0.1,2.96 ± 0.059
HTDVSSSLEARYFFYLS [RPN3],2.68 ± 0.083,3.23 ± 0.1,2.72 ± 0.11,2.85 ± 0.076
TIYNLQHHVTDADKLSF [YML031W/NDC1],1.94 ± 0.04,2.33 ± 0.053,1.98 ± 0.061,2.06 ± 0.04
NLRHERNSLETKLTTCK [YIL149C/MLP2],2.83 ± 0.13,2.79 ± 0.14,2.93 ± 0.12,3.04 ± 0.077
SAKQTAPNNSNGGSEEE [MED7],3.45 ± 0.27,,,
LPHSPLWELALAFIPNI [YML031W/NDC1],1.36 ± 0.084,1.25 ± 0.044,1.24 ± 0.092,1.08 ± 0.05
GNRYLEKRLNLRVEHIK [RPL21A],3.05 ± 0.077,2.96 ± 0.086,3.08 ± 0.075,3.05 ± 0.071
KDSYVRIANIEQNHLDN [YDL088C/ASM4],3.12 ± 0.14,3.43 ± 0.28,3.05 ± 0.13,3.18 ± 0.13
GRTPNISNGTINIQKKL [SIR4],2.37 ± 0.058,2.64 ± 0.048,2.58 ± 0.063,2.16 ± 0.041
WGMEPLEDYVPHQSPDA [RPB2],2.85 ± 0.11,3.3 ± 0.13,2.98 ± 0.081,2.98 ± 0.076
SLEALIDLCHDFPHLTP [YCS4],2.31 ± 0.042,2.35 ± 0.036,2.56 ± 0.049,2.25 ± 0.031
GTLDINPDDDYGFKQEI [FAS1],3.12 ± 0.26,3.21 ± 0.15,2.79 ± 0.099,3.04 ± 0.086
TFKSVSKYGMLLLRCDD [POP3],1.89 ± 0.058,2.01 ± 0.067,1.96 ± 0.12,1.72 ± 0.068
CLMRSLHKLELKAKNQE [DSN1],1.21 ± 0.06,1.31 ± 0.067,1.19 ± 0.16,1.16 ± 0.051
KMSDGFNGADIRNCATE [RPT4],3.43 ± 0.074,3.47 ± 0.059,3.35 ± 0.041,3.3 ± 0.043
DGKLEPSTRSNFILEVF [YJL039C/NUP192],1.63 ± 0.081,1.61 ± 0.067,1.92 ± 0.14,1.33 ± 0.069
FSFGAATPSAKEASQED [YLR335W/NUP2],3.29 ± 0.062,3.25 ± 0.074,3.12 ± 0.055,3.16 ± 0.087
LSEYDAIQKKDNKDKEG [YOR098C/NUP1],3.35 ± 0.13,3.33 ± 0.097,3.38 ± 0.11,3.38 ± 0.067
LELPLCPYCYKKRREYF [SIR2],2.46 ± 0.053,2.06 ± 0.057,1.95 ± 0.07,1.98 ± 0.077

Sequence,protein stability index (doa10∆),protein stability index (pdr5∆),protein stability index (san1∆),protein stability index (ubr1∆)
LKKIRAHRGIRHFWGLR [RPS18A],3.03 ± 0.11,2.74 ± 0.078,2.44 ± 0.079,2.62 ± 0.05
LSYYVEETNVDIGVLEE [SMC4],,3.38 ± 0.22,3.62 ± 0.072,3.5 ± 0.1
SFLHVDDKLAYIRVNHA [POP8],2.67 ± 0.08,2.29 ± 0.068,2.21 ± 0.11,2.56 ± 0.061
FGQRAVLKFAAHTGATP [RPS0A],2.18 ± 0.082,2.56 ± 0.07,2.45 ± 0.11,2.61 ± 0.067
LTIKDIVLGVKDLQENL [RPO21],,2.86 ± 0.29,3.6 ± 0.048,
KGYLQRGDDGESYAYLA [CDC53],3.17 ± 0.057,3.17 ± 0.055,3.21 ± 0.033,3.25 ± 0.044
KLRARLVEYGFDPSRIK [SMC2],2.73 ± 0.06,2.62 ± 0.092,2.33 ± 0.08,2.01 ± 0.034
QVGDGLEILIVTKDGVR [PRE7],2.64 ± 0.054,2.6 ± 0.049,2.92 ± 0.053,2.76 ± 0.052
IELSVPDRQSMDSRVAH [SRB5],3.11 ± 0.17,2.96 ± 0.14,3.17 ± 0.13,3.16 ± 0.089
HMADAKIMPKDILQITK [SIR4],2.99 ± 0.072,3.29 ± 0.068,2.87 ± 0.071,2.95 ± 0.063
WKFKSLIEILRLRALQL [RRI2],1.45 ± 0.093,1.21 ± 0.075,1.14 ± 0.13,1.08 ± 0.075
GRENFVYANNPEVSDDG [SIR3],3.05 ± 0.096,3.08 ± 0.085,2.8 ± 0.1,3.03 ± 0.068
GDKFSEDFRIQFKTTIK [UBP6],3.14 ± 0.1,2.93 ± 0.09,2.32 ± 0.087,2.58 ± 0.059
SMSLQSKNLGEINTALN [SWI1],2.81 ± 0.12,2.9 ± 0.1,,3.08 ± 0.12
AIPSRMTVAHLIECLLS [RPB2],1.39 ± 0.098,1.85 ± 0.094,1.39 ± 0.25,1.67 ± 0.09
TDLESKSRMINFLDAPG [SNU114],2.65 ± 0.078,2.95 ± 0.094,2.71 ± 0.067,2.8 ± 0.047
DDPLENMFGDYSNEPFN [SNF6],2.98 ± 0.087,2.81 ± 0.069,3.26 ± 0.085,3.16 ± 0.058
ADLMALENATWTMRIEG [SNF12],2.94 ± 0.11,3.05 ± 0.13,3.17 ± 0.12,3.07 ± 0.081
RNQEKKMEKKKSSSLSL [SNM1],3.53 ± 0.22,3.5 ± 0.16,2.68 ± 0.22,2.98 ± 0.1
VKSLVDNMITGVTKGYK [RPL9A],2.75 ± 0.081,3.31 ± 0.14,2.92 ± 0.25,3.11 ± 0.073
AAAGAAMIDAGALEEIT [FAS2],2.72 ± 0.15,2.96 ± 0.11,,2.73 ± 0.1
WGIPLIKELRSKGYPIQ [FAS1],2.38 ± 0.16,2.75 ± 0.091,1.69 ± 0.2,1.85 ± 0.071
NGNLTSNQLISNYAASN [SWI1],3.13 ± 0.12,2.89 ± 0.1,2.98 ± 0.11,3.1 ± 0.055
NSSTSSTSNTPSPPNVI [YDL088C/ASM4],2.88 ± 0.05,2.88 ± 0.045,2.7 ± 0.052,3.06 ± 0.043
DQKTGRAKSSSHLFNEY [RPN4],2.85 ± 0.25,3.22 ± 0.24,3.39 ± 0.12,3.46 ± 0.15
SILRKSSPEEPFMSYSP [SNF12],2.64 ± 0.074,2.74 ± 0.075,2.55 ± 0.088,2.79 ± 0.059
KGSRQCRVCSSHTGLVR [RPS29B],2.67 ± 0.065,2.79 ± 0.051,2.66 ± 0.056,2.61 ± 0.03
